Source: patent publication US20140274782A1, “AFFINITY REAGENTS AND METHODS FOR DETECTION, PURIFICATION, AND PROTEOMIC ANALYSIS OF METHYLATED PROTEINS” (The Board of Trustees of the Leland Stanford Junior …, priority 2013, published 2014)
Each block holds one molecule with its values, some of them ahead of it.

Assays:
G9a and GLP = molecular target: T1, G9a and GLP (Homo sapiens, UniProt Q96KQ7+Q9H9B1); experiment: Triple SILAC pull-down after UNC0638 treatment of 293T cells, DMSO/UNC0638 ratio of protein captured by 3×MBT; type: cell-based; parameters: endogenous in cells; host or cells: HEK 293T; settings: for Relative to UNC0638 UNC Heavy / Relative to UNC0638 UNC Light: SILAC ratio DMSO/UNC0638 of protein pulled down with 3xMBT; for Relative to UNC0638 UNC Heavy: UNC0638 in heavy SILAC media; for Relative to UNC0638 UNC Light: UNC0638 in light SILAC media; for Relative to UNC0638 Average: average of UNC Light and UNC Heavy experiments;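 on all read-outs here: mass spectrometry (Q-Exactive) SILAC quantitation, DMSO/UNC0638 ratio computed after subtracting 3×MBTD355N mutant pull-down background, only proteins with at least twofold 3×MBT over mutant signal considered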
T1 sequence (Q96KQ7 2-1210 limits assumed): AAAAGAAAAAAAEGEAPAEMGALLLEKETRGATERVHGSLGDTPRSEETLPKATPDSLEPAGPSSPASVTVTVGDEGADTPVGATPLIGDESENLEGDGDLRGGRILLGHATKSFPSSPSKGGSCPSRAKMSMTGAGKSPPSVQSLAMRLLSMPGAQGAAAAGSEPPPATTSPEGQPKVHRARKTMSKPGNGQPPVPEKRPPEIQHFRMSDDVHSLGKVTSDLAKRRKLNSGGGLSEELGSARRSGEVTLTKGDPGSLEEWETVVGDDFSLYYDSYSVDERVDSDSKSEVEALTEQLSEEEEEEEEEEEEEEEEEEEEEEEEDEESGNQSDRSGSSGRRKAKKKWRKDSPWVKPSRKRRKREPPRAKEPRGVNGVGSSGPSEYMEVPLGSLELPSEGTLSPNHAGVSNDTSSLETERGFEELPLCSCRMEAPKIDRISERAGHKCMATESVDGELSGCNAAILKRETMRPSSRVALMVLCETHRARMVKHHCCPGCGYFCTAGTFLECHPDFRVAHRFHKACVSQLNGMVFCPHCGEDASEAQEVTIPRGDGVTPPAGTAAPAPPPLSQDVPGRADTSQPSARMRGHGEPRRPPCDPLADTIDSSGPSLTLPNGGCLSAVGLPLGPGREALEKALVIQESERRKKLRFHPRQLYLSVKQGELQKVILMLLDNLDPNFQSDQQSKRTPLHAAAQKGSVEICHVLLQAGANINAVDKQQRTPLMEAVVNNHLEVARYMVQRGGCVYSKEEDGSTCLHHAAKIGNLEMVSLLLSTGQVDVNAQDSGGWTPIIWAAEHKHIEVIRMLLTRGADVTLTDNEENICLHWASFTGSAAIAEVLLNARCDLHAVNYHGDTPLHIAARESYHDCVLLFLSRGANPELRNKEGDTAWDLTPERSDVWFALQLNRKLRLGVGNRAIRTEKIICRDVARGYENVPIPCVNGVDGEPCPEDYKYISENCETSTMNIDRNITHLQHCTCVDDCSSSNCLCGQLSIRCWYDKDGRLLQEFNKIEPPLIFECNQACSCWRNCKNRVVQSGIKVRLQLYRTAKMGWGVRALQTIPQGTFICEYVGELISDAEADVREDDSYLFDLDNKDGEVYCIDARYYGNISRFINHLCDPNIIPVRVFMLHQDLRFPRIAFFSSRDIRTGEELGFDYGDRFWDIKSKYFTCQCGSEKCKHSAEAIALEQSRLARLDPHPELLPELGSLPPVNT
T1 sequence (Q9H9B1 2-1298 limits assumed): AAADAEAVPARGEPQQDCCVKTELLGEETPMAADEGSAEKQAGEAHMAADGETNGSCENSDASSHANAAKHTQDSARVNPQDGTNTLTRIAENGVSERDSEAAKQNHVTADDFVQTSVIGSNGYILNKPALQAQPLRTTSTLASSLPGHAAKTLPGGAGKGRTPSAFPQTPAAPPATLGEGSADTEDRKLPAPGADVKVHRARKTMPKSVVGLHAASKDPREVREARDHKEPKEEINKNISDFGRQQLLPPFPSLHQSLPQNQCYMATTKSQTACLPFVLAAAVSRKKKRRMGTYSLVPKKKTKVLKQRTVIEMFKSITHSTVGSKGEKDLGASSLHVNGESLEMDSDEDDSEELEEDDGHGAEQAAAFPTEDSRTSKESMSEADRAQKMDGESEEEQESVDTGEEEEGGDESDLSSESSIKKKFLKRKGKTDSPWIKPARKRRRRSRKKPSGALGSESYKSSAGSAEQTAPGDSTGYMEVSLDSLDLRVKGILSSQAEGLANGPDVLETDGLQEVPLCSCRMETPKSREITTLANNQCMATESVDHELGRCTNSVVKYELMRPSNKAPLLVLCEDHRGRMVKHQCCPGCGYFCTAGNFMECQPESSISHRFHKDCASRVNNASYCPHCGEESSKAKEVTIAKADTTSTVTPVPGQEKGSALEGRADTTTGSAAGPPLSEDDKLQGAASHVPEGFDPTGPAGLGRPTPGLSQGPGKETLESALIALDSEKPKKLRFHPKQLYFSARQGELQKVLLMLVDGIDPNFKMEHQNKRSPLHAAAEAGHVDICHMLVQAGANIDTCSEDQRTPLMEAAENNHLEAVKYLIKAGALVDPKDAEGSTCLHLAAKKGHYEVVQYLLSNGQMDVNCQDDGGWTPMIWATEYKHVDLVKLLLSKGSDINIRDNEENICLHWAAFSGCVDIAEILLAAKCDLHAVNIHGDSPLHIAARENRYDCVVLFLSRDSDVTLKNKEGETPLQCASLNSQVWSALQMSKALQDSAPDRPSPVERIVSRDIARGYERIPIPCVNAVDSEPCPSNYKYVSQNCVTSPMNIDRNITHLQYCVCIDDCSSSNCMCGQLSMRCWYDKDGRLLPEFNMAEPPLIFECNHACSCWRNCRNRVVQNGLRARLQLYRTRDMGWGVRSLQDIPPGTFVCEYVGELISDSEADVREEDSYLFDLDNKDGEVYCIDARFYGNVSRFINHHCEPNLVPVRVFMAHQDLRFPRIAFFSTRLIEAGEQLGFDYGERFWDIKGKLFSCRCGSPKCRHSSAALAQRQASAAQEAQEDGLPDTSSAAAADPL

3×MBT domain of L3MBTL1 = experiment: Triple SILAC pull-down, 3xMBT/3xMBTD355N ratio (cytoplasmic, nuclear and chromatin fractions of 293T cells); type: binding, human; settings: SILAC ratio, pull-down 3xMBT vs 3xMBTD355N; for 3xMBT/D355N UNC Heavy: experiment with UNC0638 in heavy SILAC media; for 3xMBT/D355N UNC Light: experiment with UNC0638 in light SILAC media;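 on all read-outs here: proteins quantified with MaxQuant, requiring at least two unique peptides and quantification in both label directions, normalized to the mean of proteins from a digested loading control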

Relative to UNC0638 UNC Heavy (G9a and GLP): −0.08 log base 2 | Relative to UNC0638 UNC Light (G9a and GLP): 0.38 log base 2 | Relative to UNC0638 Average (G9a and GLP): 0.15 log base 2
B1: SRP19 (protein, UniProt P09132 1-144, looked up)
Signal recognition particle …: MACAAARSPADQDRFICIYPAYLNNKKTIAEGRRIPISKAVENPTATEIQDVCSAVGLNVFLEKNKMYSREWNRDVQYRGRVRVQLKQEDGSLCLVQFPSRKSVMLYAAEMIPKLKTRTQKTGGADQSLQQGEGSKKGKGKKKK
3xMBT/D355N UNC Heavy (3×MBT domain of L3MBTL1): 1.88 log base 2 | 3xMBT/D355N UNC Light (3×MBT domain of L3MBTL1): 2.14 log base 2

Relative to UNC0638 UNC Heavy (G9a and GLP): −0.02 log base 2 | Relative to UNC0638 UNC Light (G9a and GLP): 0.33 log base 2 | Relative to UNC0638 Average (G9a and GLP): 0.15 log base 2
B2: ZNF326 (protein, UniProt Q5BKZ1 1-582, looked up)
DBIRD complex subunit ZNF326: MDFEDDYTHSACRNTYQGFNGMDRDYGPGSYGGMDRDYGHGSYGGQRSMDSYLNQSYGMDNHSGGGGGSRFGPYESYDSRSSLGGRDLYRSGYGFNEPEQSRFGGSYGGRFESSYRNSLDSFGGRNQGGSSWEAPYSRSKLRPGFMEDRGRENYSSYSSFSSPHMKPAPVGSRGRGTPAYPESTFGSRNYDAFGGPSTGRGRGRGHMGDFGSIHRPGIVVDYQNKSTNVTVAAARGIKRKMMQPFNKPSGTFIKKPKLAKPMEKISLSKSPTKTDPKNEEEEKRRIEARREKQRRRREKNSEKYGDGYRMAFTCSFCKFRTFEEKDIELHLESSSHQETLDHIQKQTKFDKVVMEFLHECMVNKFKKTSIRKQQTNNQTEVVKIIEKDVMEGVTVDDHMMKVETVHCSACSVYIPALHSSVQQHLKSPDHIKGKQAYKEQIKRESVLTATSILNNPIVKARYERFVKGENPFEIQDHSQDQQIEGDEEDEEKIDEPIEEEEDEDEEEEAEEVGEVEEVEEVEEVREGGIEGEGNIQGVGEGGEVGVVGEVEGVGEVEEVEELEEETAKEEPADFPVEQPEEN
3xMBT/D355N UNC Heavy (3×MBT domain of L3MBTL1): 3.01 log base 2 | 3xMBT/D355N UNC Light (3×MBT domain of L3MBTL1): 6.59 log base 2

Relative to UNC0638 UNC Heavy (G9a and GLP): 0.35 log base 2 | Relative to UNC0638 UNC Light (G9a and GLP): −0.04 log base 2 | Relative to UNC0638 Average (G9a and GLP): 0.15 log base 2
B3: KIN (protein, UniProt O60870 1-393, looked up)
DNA/RNA-binding protein KIN17: MGKSDFLTPKAIANRIKSKGLQKLRWYCQMCQKQCRDENGFKCHCMSESHQRQLLLASENPQQFMDYFSEEFRNDFLELLRRRFGTKRVHNNIVYNEYISHREHIHMNATQWETLTDFTKWLGREGLCKVDETPKGWYIQYIDRDPETIRRQLELEKKKKQDLDDEEKTAKFIEEQVRRGLEGKEQEVPTFTELSRENDEEKVTFNLSKGACSSSGATSSKSSTLGPSALKTIGSSASVKRKESSQSSTQSKEKKKKKSALDEIMEIEEEKKRTARTDYWLQPEIIVKIITKKLGEKYHKKKAIVKEVIDKYTAVVKMIDSGDKLKLDQTHLETVIPAPGKRILVLNGGYRGNEGTLESINEKTFSATIVIETGPLKGRRVEGIQYEDISKLA
3xMBT/D355N UNC Heavy (3×MBT domain of L3MBTL1): 2.85 log base 2 | 3xMBT/D355N UNC Light (3×MBT domain of L3MBTL1): 2.11 log base 2

Relative to UNC0638 UNC Heavy (G9a and GLP): 0.17 log base 2 | Relative to UNC0638 UNC Light (G9a and GLP): 1.22 log base 2 | Relative to UNC0638 Average (G9a and GLP): 0.70 log base 2 | Candidate G9a/GLP target (G9a and GLP; reduced association with 3xMBT after UNC0638 treatment): ✓
B4: HN1L (protein, UniProt Q9H910 1-190, looked up)
Jupiter microtubule …: MFQVPDSEGGRAGSRAMKPPGGESSNLFGSPEEATPSSRPNRMASNIFGPTEEPQNIPKRTNPPGGKGSGIFDESTPVQTRQHLNPPGGKTSDIFGSPVTATSRLAHPNKPKDHVFLCEGEEPKSDLKAARSIPAGAEPGEKGSARKAGPAKEQEPMPTVDSHEPRLGPRPRSHNKVLNPPGGKSSISFY
3xMBT/D355N UNC Heavy (3×MBT domain of L3MBTL1): 2.73 log base 2 | 3xMBT/D355N UNC Light (3×MBT domain of L3MBTL1): 3.57 log base 2

Relative to UNC0638 UNC Heavy (G9a and GLP): 0.14 log base 2 | Relative to UNC0638 UNC Light (G9a and GLP): 0.16 log base 2 | Relative to UNC0638 Average (G9a and GLP): 0.15 log base 2
B5: ZC3HAV1L (protein, UniProt Q96H79 2-300, looked up)
Zinc finger CCCH-type …: AEPTVCSFLTKVLCAHGGRMFLKDLRGHVELSEARLRDVLQRAGPERFLLQEVETQEGLGDAEAEAAAGAVGGGGTSAWRVVAVSSVRLCARYQRGECQACDQLHFCRRHMLGKCPNRDCWSTCTLSHDIHTPVNMQVLKSHGLFGLNENQLRILLLQNDPCLLPEVCLLYNKGEALYGYCNLKDKCNKFHVCKSFVKGECKLQTCKRSHQLIHAASLKLLQDQGLNIPSVVNFQIISTYKHMKLHKMLENTDNSSPSTEHSQGLEKQGVHAAGAAEAGPLASVPAQSAKKPCPVSCEK
3xMBT/D355N UNC Heavy (3×MBT domain of L3MBTL1): 1.71 log base 2 | 3xMBT/D355N UNC Light (3×MBT domain of L3MBTL1): 2.00 log base 2

Relative to UNC0638 UNC Heavy (G9a and GLP): 0.11 log base 2 | Relative to UNC0638 UNC Light (G9a and GLP): 0.20 log base 2 | Relative to UNC0638 Average (G9a and GLP): 0.15 log base 2
B6: EEF1D (protein, UniProt P29692 2-281, looked up)
Elongation factor 1-delta: ATNFLAHEKIWFDKFKYDDAERRFYEQMNGPVAGASRQENGASVILRDIARARENIQKSLAGSSGPGASSGTSGDHGELVVRIASLEVENQSLRGVVQELQQAISKLEARLNVLEKSSPGHRATAPQTQHVSPMRQVEPPAKKPATPAEDDEDDDIDLFGSDNEEEDKEAAQLREERLRQYAEKKAKKPALVAKSSILLDVKPWDDETDMAQLEACVRSIQLDGLVWGASKLVPVGYGIRKLQIQCVVEDDKVGTDLLEEEITKFEEHVQSVDIAAFNKI
3xMBT/D355N UNC Heavy (3×MBT domain of L3MBTL1): 3.34 log base 2 | 3xMBT/D355N UNC Light (3×MBT domain of L3MBTL1): 3.56 log base 2

Relative to UNC0638 UNC Heavy (G9a and GLP): 0.02 log base 2 | Relative to UNC0638 UNC Light (G9a and GLP): 0.28 log base 2 | Relative to UNC0638 Average (G9a and GLP): 0.15 log base 2
B7: HNRNPA0 (protein, UniProt Q13151 1-305, looked up)
Heterogeneous nuclear …: MENSQLCKLFIGGLNVQTSESGLRGHFEAFGTLTDCVVVVNPQTKRSRCFGFVTYSNVEEADAAMAASPHAVDGNTVELKRAVSREDSARPGAHAKVKKLFVGGLKGDVAEGDLIEHFSQFGTVEKAEIIADKQSGKKRGFGFVYFQNHDAADKAAVVKFHPIQGHRVEVKKAVPKEDIYSGGGGGGSRSSRGGRGGRGRGGGRDQNGLSKGGGGGYNSYGGYGGGGGGGYNAYGGGGGGSSYGGSDYGNGFGGFGSYSQHQSSYGPMKSGGGGGGGGSSWGGRSNSGPYRGGYGGGGGYGGSSF
3xMBT/D355N UNC Heavy (3×MBT domain of L3MBTL1): 2.94 log base 2 | 3xMBT/D355N UNC Light (3×MBT domain of L3MBTL1): 3.80 log base 2
